Measurements taken from the supplement of paper PMC10567573.

B1: NET1 (parent)
chain: RVRPLARVTSLANLISPVRNGAVR

Variants of: B1
Assay: protein stability index of a GFP-peptide fusion (GPS, HEK-293T) (PSI 1-6); higher = more stable
Conditions: c terminus: a fixed tail appended
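Further: lentivirally expressed fusions sorted by FACS into six bins by GFP to DsRed ratio, PSI derived from sequencing read proportions per bin multiplied by bin number.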

Variant	protein stability index
RVRPLARVTSNANLISPVRNGAVR [L11N]	3.77
RVRPLARVTSPANLISPVRNGAVR [L11P]	3.96
RVRPLARVTSQANLISPVRNGAVR [L11Q]	4.39
RVRPLARVTSRANLISPVRNGAVR [L11R]	3.29
RVRPLARVTSSANLISPVRNGAVR [L11S]	3.14
RVRPLARVTSTANLISPVRNGAVR [L11T]	3.56
RVRPLARVTSVANLISPVRNGAVR [L11V]	3.08
RVRPLARVTSWANLISPVRNGAVR [L11W]	1.98
RVRPLARVTSYANLISPVRNGAVR [L11Y]	2.43
RVRPLARVTSLCNLISPVRNGAVR [A12C]	2.66
RVRPLARVTSLDNLISPVRNGAVR [A12D]	3.93
RVRPLARVTSLENLISPVRNGAVR [A12E]	3.91
RVRPLARVTSLFNLISPVRNGAVR [A12F]	2.14
RVRPLARVTSLHNLISPVRNGAVR [A12H]	3.27
RVRPLARVTSLINLISPVRNGAVR [A12I]	2.58
RVRPLARVTSLKNLISPVRNGAVR [A12K]	2.94
RVRPLARVTSLLNLISPVRNGAVR [A12L]	2.77
RVRPLARVTSLMNLISPVRNGAVR [A12M]	2.42
RVRPLARVTSLNNLISPVRNGAVR [A12N]	2.79
RVRPLARVTSLPNLISPVRNGAVR [A12P]	4.28
RVRPLARVTSLQNLISPVRNGAVR [A12Q]	3.71
RVRPLARVTSLRNLISPVRNGAVR [A12R]	2.64
RVRPLARVTSLSNLISPVRNGAVR [A12S]	3.49
RVRPLARVTSLTNLISPVRNGAVR [A12T]	3.89

Variant	protein stability index
RVRPLARVTSLVNLISPVRNGAVR [A12V]	2.89
RVRPLARVTSLWNLISPVRNGAVR [A12W]	1.83
RVRPLARVTSLYNLISPVRNGAVR [A12Y]	2.52
RVRPLARVTSLAALISPVRNGAVR [N13A]	2.75
RVRPLARVTSLACLISPVRNGAVR [N13C]	1.93
RVRPLARVTSLADLISPVRNGAVR [N13D]	3.43
RVRPLARVTSLAELISPVRNGAVR [N13E]	3.22
RVRPLARVTSLAFLISPVRNGAVR [N13F]	2.6
RVRPLARVTSLAGLISPVRNGAVR [N13G]	3.05
RVRPLARVTSLAHLISPVRNGAVR [N13H]	2.66
RVRPLARVTSLAILISPVRNGAVR [N13I]	2.34
RVRPLARVTSLAKLISPVRNGAVR [N13K]	2.84
RVRPLARVTSLALLISPVRNGAVR [N13L]	1.98
RVRPLARVTSLAMLISPVRNGAVR [N13M]	1.92
RVRPLARVTSLAPLISPVRNGAVR [N13P]	3.65
RVRPLARVTSLAQLISPVRNGAVR [N13Q]	2.52
RVRPLARVTSLARLISPVRNGAVR [N13R]	3.33
RVRPLARVTSLASLISPVRNGAVR [N13S]	2.65
RVRPLARVTSLATLISPVRNGAVR [N13T]	3.11
RVRPLARVTSLAVLISPVRNGAVR [N13V]	2.33
RVRPLARVTSLAWLISPVRNGAVR [N13W]	1.72
RVRPLARVTSLAYLISPVRNGAVR [N13Y]	1.38
RVRPLARVTSLANAISPVRNGAVR [L14A]	3.15
RVRPLARVTSLANCISPVRNGAVR [L14C]	1.66

Variant	protein stability index
RVRPLARVTSLANDISPVRNGAVR [L14D]	4.39
RVRPLARVTSLANEISPVRNGAVR [L14E]	3.16
RVRPLARVTSLANFISPVRNGAVR [L14F]	2.65
RVRPLARVTSLANGISPVRNGAVR [L14G]	3.24
RVRPLARVTSLANHISPVRNGAVR [L14H]	3.63
RVRPLARVTSLANIISPVRNGAVR [L14I]	3.03
RVRPLARVTSLANKISPVRNGAVR [L14K]	3.35
RVRPLARVTSLANMISPVRNGAVR [L14M]	2.61
RVRPLARVTSLANNISPVRNGAVR [L14N]	3.84
RVRPLARVTSLANPISPVRNGAVR [L14P]	3.76
RVRPLARVTSLANQISPVRNGAVR [L14Q]	3.02
RVRPLARVTSLANRISPVRNGAVR [L14R]	3.34
RVRPLARVTSLANSISPVRNGAVR [L14S]	3.15
RVRPLARVTSLANTISPVRNGAVR [L14T]	3.67
RVRPLARVTSLANVISPVRNGAVR [L14V]	2.72
RVRPLARVTSLANWISPVRNGAVR [L14W]	4.15
RVRPLARVTSLANYISPVRNGAVR [L14Y]	3.17
RVRPLARVTSLANLASPVRNGAVR [I15A]	4.27
RVRPLARVTSLANLCSPVRNGAVR [I15C]	2.76
RVRPLARVTSLANLDSPVRNGAVR [I15D]	3.65
RVRPLARVTSLANLESPVRNGAVR [I15E]	4.08
RVRPLARVTSLANLFSPVRNGAVR [I15F]	2.76
RVRPLARVTSLANLGSPVRNGAVR [I15G]	3.6
RVRPLARVTSLANLHSPVRNGAVR [I15H]	4.02

Variant	protein stability index
RVRPLARVTSLANLKSPVRNGAVR [I15K]	3.27
RVRPLARVTSLANLLSPVRNGAVR [I15L]	3.03
RVRPLARVTSLANLMSPVRNGAVR [I15M]	3.29
RVRPLARVTSLANLNSPVRNGAVR [I15N]	3.97
RVRPLARVTSLANLPSPVRNGAVR [I15P]	3.31
RVRPLARVTSLANLQSPVRNGAVR [I15Q]	3.66
RVRPLARVTSLANLRSPVRNGAVR [I15R]	3.56
RVRPLARVTSLANLSSPVRNGAVR [I15S]	3.63
RVRPLARVTSLANLTSPVRNGAVR [I15T]	3.5
RVRPLARVTSLANLVSPVRNGAVR [I15V]	3.39
RVRPLARVTSLANLWSPVRNGAVR [I15W]	2.47
RVRPLARVTSLANLYSPVRNGAVR [I15Y]	3.27
RVRPLARVTSLANLIAPVRNGAVR [S16A]	3.46
RVRPLARVTSLANLICPVRNGAVR [S16C]	1.25
RVRPLARVTSLANLIDPVRNGAVR [S16D]	2.86
RVRPLARVTSLANLIEPVRNGAVR [S16E]	3.15
RVRPLARVTSLANLIFPVRNGAVR [S16F]	2.21
RVRPLARVTSLANLIGPVRNGAVR [S16G]	3.14
RVRPLARVTSLANLIHPVRNGAVR [S16H]	2.83
RVRPLARVTSLANLIIPVRNGAVR [S16I]	2.44
RVRPLARVTSLANLIKPVRNGAVR [S16K]	2.88
RVRPLARVTSLANLILPVRNGAVR [S16L]	2.49
